# From doi:10.1101/2023.03.19.532587 (bioRxiv, 2023)
# Molecular target: the molecule itself
# Assay: SEC-MALS
protein,measurement,value
"nCPEB4-NTD (N-terminal domain of neuronal CPEB4, with microexon 4) (domain or fragment, human) MGDYGFGVLVQSNTGNKSAFPVRFHPHLQPPHHHQNATPSPAAFINNNTAANGSSAGSAWLFPAPATHNIQDEILGSEKAKSQQQEQQDPLEKQQLSPSPGQEAGILPETEKAKSEENQGDNSSENGNGKEKIRIESPVLTGFDYQEATGLGTSTQPLTSSASSLTGFSNWSAAIAPSSSTIINEDASFFHQGGVPAASANNGALLFQNFPHHVSPGFGGSFSPQIGPLSQHHPHHPHFQHHHSQHQQQRRSPASPHPPPFTHRNAAFNQLPHLANNLNKPPSPWSSYQSPSPTPSSSWSPGGGGYGGWGGSQGRDHRRGLNGGITPLNSISPLKKNFASNHIQLQKYARPSSAFAPKSWMEDSLNRADNIFPFPDRPRTFDMHSLESSLIDIMRAENDTIKARTYGRRRGQSSLFPMEDGFLDDGRGDQPLHSGLGSPHCFSHQNGE",stoichiometry N,~350 molecules
